From patent publication US12091776B2, “Protease activity profiling via programmable phage display of comprehensive proteome-scale peptide libraries” (THE JOHNS HOPKINS UNIVERSITY, priority 2019, dated 2024)

Tests used:
Thrombin = target: T1, Thrombin (Homo sapiens, UniProt P00734); assay: SEPARATE assay: human peptidome library digest with Thrombin; type: biochemical; settings: human library, Thrombin
T1 construct: Thrombin (a serine protease); purchased SignalChem
Procedure: The PCR2 amplicons are pooled and sequenced using an Illumina NextSeq instrument in standard output mode to obtain single-end 50 nucleotide reads. Dual indexed sample demultiplexing and clonal read count determination were performed using exact sequence matching. […] To calculate the normalization factor, 100 peptides were randomly selected from the mock digest conditions with a read count ranging between 10 and 40. The median read count value for these 100 peptides is calculated for each sample. The random peptide selection and median calculation is performed 20 times and the average of the 20 median values is calculated for each sample. Finally, the normalization factor is calculated by dividing the average median value for each sample by that for one of the mock digest conditions. […]

Caspase-1 [1] = target: T2, Caspase-1 (Homo sapiens, UniProt P29466); assay: SEPARATE assay: 56-amino acid mouse peptidome library digested with Caspase-1; type: biochemical; settings: selected peptides, mouse library (56-aa tiles)
T2 construct: purchased BioVision
T2 sequence (P29466 120-297 limits assumed): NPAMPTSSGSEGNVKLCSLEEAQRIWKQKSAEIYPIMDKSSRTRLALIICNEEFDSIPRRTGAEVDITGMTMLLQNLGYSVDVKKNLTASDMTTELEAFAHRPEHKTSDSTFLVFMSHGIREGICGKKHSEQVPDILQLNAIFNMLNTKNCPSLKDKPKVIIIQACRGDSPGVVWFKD
T2 sequence (P29466 317-404 limits assumed): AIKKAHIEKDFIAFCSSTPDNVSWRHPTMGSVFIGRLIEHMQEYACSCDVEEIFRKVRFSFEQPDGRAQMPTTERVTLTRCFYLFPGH
Procedure: (§1) Streptavidin-coupled magnetic beads (Dynabeads M-280 Streptavidin, ThermoFisher Scientific) were washed (TBS, pH 7.4, 0.01% NP40) and resuspended in binding buffer (TBS, pH 7.4, 0.001% NP40) containing 2E9 plaque forming units per 10 μl of bead slurry. End-over-end mixing at room temperature was performed for one hour. Phage-coated beads were washed three times with wash buffer and transferred into two protein LoBind Eppendorf tubes blocked with TBS, pH 7.4 containing 1% BSA.
Digestion occurred overnight at room temperature with end-over-end rotation. […] To remove any residual biotinylated phage that may have been nonspecifically released, the 150 μl supernatant of the quenched digest reaction is then incubated with a fresh 10 μl of slurry volume M280 streptavidin beads (pre-washed three times with wash buffer) in a LoBind Eppendorf tube blocked with TBS, pH 7.4 containing 1% BSA at room temperature for one hour with end-over-end rotation.
10 μl slurry volume of protein G magnetic dynabeads were washed in buffer (TBS, pH 7.4, 0.01% NP40) and then resuspended in 50 μl TBS, pH 7.4, 0.01% NP40 containing 4 μg of M2 FLAG antibody for thirty minutes at room temperature with end-over-end rotation. The 150 μl quenched digest reaction is added to the 10 μl FLAG-coated Protein G beads and incubated for 60 minutes at room temperature with end-over-end rotation to capture phage particles released at the protease digest step. Beads are rinsed once with 100 μl wash buffer and stored at −80° C. until PCR amplification.
Library PCR preparation, high-throughput DNA sequencing, and peptide read count data generation was performed as described previously.^44 Briefly, library peptide inserts are amplified by resuspending 10 μl of FLAG-coated Protein G beads in PCR1 master mix containing the T7-Pep2_PCR1_F forward primer ([…]) (SEQ ID NO:3) and a T7-SEPARATE vector specific reverse primer ([…]) (SEQ ID NO:4), which includes an adapter sequence for sample-specific barcoding and Illumina P7 adapter incorporation during a subsequent PCR2 reaction. The PCR2 amplicons are pooled and sequenced using an Illumina NextSeq instrument in standard output mode to obtain single-end 50 nucleotide reads. Dual indexed sample demultiplexing and clonal read count determination were performed using exact sequence matching. […] To calculate the normalization factor, 100 peptides were randomly selected from the mock digest conditions with a read count ranging between 10 and 40. The median read count value for these 100 peptides is calculated for each sample. The random peptide selection and median calculation is performed 20 times and the average of the 20 median values is calculated for each sample. Finally, the normalization factor is calculated by dividing the average median value for each sample by that for one of the mock digest conditions. Read counts are then converted to normalized read counts by dividing each sample's read count values by the normalization factor. Fold enrichments are calculated for each peptide by dividing their normalized read counts in the digest condition by the normalized read counts in the mock digest condition. The fold enrichments can be visualized in an MA plot by transforming the normalized read count data into a log ratio (M, on the y-axis) and a mean average (A, on the x-axis) between the digest and mock digest conditions.
The performance of the SEPARATE assay is expected to depend on protease-substrate requirements as well as biophysical features of the peptide library. The present inventors have verified by PCR and Sanger sequencing that 90% of the immobilized human library lacks in-frame mutations. […] To explore this further, a 56-amino acid mouse peptidome library (unpublished) was used in which both IL-1β and Gasdermin-D cleavage peptides are better represented. […] Mouse IL-1β and Gasdermin-D are highly similar to the human versions and can serve as substrates for human Caspase-1. […]

Caspase-1 [2] = target: T2, Caspase-1; assay: SEPARATE assay: human peptidome library digest with Caspase-1; type: biochemical; settings: unstimulated THP-1 cell lysate supplemented with 0.1 units of recombinant Caspase-1
Procedure: as §1
Digestion occurred overnight at room temperature with end-over-end rotation. […]
Library PCR preparation, high-throughput DNA sequencing, and peptide read count data generation was performed as described previously.^44 Briefly, library peptide inserts are amplified by resuspending 10 μl of FLAG-coated Protein G beads in PCR1 master mix containing the T7-Pep2_PCR1_F forward primer ([…]) (SEQ ID NO:3) and a T7-SEPARATE vector specific reverse primer ([…]) (SEQ ID NO:4), which includes an adapter sequence for sample-specific barcoding and Illumina P7 adapter incorporation during a subsequent PCR2 reaction. The PCR2 amplicons are pooled and sequenced using an Illumina NextSeq instrument in standard output mode to obtain single-end 50 nucleotide reads. Dual indexed sample demultiplexing and clonal read count determination were performed using exact sequence matching. […]

endogenous Caspase-1 = target: T3, endogenous Caspase-1 (Homo sapiens, UniProt P29466); assay: In vitro stimulation of the inflammasome in THP-1 cells (Western blot); type: cell-based; settings: PMA differentiated THP-1 cells, LPS and Nigericin
T3 construct: endogenous in cells; host or cells: PMA-differentiated THP-1 cells
T3 sequence (P29466 120-404): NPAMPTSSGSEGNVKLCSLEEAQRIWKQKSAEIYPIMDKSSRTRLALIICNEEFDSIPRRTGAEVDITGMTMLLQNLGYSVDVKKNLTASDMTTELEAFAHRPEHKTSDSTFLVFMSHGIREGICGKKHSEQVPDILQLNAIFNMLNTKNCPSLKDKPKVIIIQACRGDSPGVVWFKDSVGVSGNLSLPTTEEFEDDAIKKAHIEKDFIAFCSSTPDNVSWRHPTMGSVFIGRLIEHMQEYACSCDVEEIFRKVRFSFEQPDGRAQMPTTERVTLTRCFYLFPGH
Procedure: THP-1 cells were cultured in RPMI-1640 media with Glutamax (Gibco, ThermoFisher, Cat #61870127), supplemented with 10% FBS (Hyclone SH30071, GE Life Sciences), and 1× Antibiotic-Antimycotic (Gibco, ThermoFisher, Cat #15240062), referred to as complete RPMI. To differentiate THP-1 cells into macrophages, 1×10^6 THP-1 cells were added per well of a 6-well plate in complete RPMI medium containing 50 ng/ml Phorbol 12-myristate 13-acetate (PMA, diluted in RPMI medium from a 1 mg/ml PMA stock in DMSO, Millipore Sigma, Cat. No. P1585). After 48 hours when the cells become adherent, the medium with PMA was removed, cells washed in 1×PBS once, and fresh complete RPMI was added. Cells were allowed to rest for an additional 24 hours before inflammasome activation with LPS and Nigericin.
A 6-well plate of PMA differentiated THP-1 cells were treated with 0, 1 or 0.1 μg/ml LPS (Millipore Sigma, Cat. No. LPS25) for 3.5 hours. After 3.5 hours, cells were treated with 2.5 μM Nigericin for an additional 30 minutes to activate the inflammasome. Cells were washed in 1×PBS and lysed in 1× mammalian cell extraction buffer (BioVision, Cat. No. K269) containing 2 μM Dithiothreitol (DTT). Nuclei were spun down by centrifugation (10,000 rpm, 5 minutes, 4° C.) and the cleared supernatant was used to perform Western blots. […]

Caspase-1 [3] = target: T2, Caspase-1; assay: HUWE1 cleavage assay using recombinant Caspase-1 in THP-1 lysate (Western blot); type: biochemical; settings: recombinant Caspase-1 added to unstimulated THP-1 cell lysates; time-dependent
Procedure: Recombinant Caspase-1 (rCaspase-1) was diluted to 0.1 U/μl in 1× mammalian cell extraction buffer containing 2 μM Dithiothreitol (DTT). This buffer preserves enzymatic activity of proteases. Unstimulated, PMA differentiated THP-1 cells were also lysed in 1× mammalian cell extraction buffer with 200 μl of buffer to lyse one well of a 6-well plate (˜1×10^6 cells). Protease digests were set up with 50 μl of lysate (˜250,000 cells).
30 μl of protein lysates were mixed with 10 μl of 4× NuPage LDS sample loading buffer (Thermo Fisher, Cat. No. NP0007, final concentration to 1×). 4-12% NuPage Bis-Tris gels (Thermo Fisher, Cat. No. NP0321) were loaded with 35 μl of each sample along with high molecular weight standards (HiMark protein ladder, Thermo Fisher, Cat. No. LC5699) and resolved in 1× NuPAGE™ MES SDS Running Buffer (Thermo Fisher, Cat. No. NP0002) at 150V for 50-60 minutes. After suitable resolution of proteins, the gels were transferred to a PVDF membrane by the ‘wet transfer’ method using 1× NuPage transfer buffer (Thermo Fisher, Cat. No. NP00061) overnight at 4° C., 50 mA constant current. After transfer is complete, the membranes were washed in 1× tris buffered saline containing 0.01% Tween-20 (TBS-T), blocked for 30 minutes with 5% milk in TBS-T and probed with primary antibodies and HRP conjugated secondary antibodies with TBS-T washing in between. […]

With Fibrinogen the “scoring in the SEPARATE assay” value (Thrombin) was “did not score”.
Work on “GSDMD 222-278: 56-amino acid mouse peptidome library peptide of Gasdermin-D (LLIGSKWDILLVSDEKQRTFEPSSGDRKAVGQRHHGLNVLAALCSIGKQLSLLSDGI; UniProt Q9D8T2 222-278, looked up, fragment)” yielded a Caspase1 fold change (Caspase-1 [1]) of 4.23 fold.
“GSDMD 259-315: 56-amino acid mouse peptidome library peptide of Gasdermin-D (NVLAALCSIGKQLSLLSDGIDEEELIEAADFQGLYAEVKACSSELESLEMELRQQIL; UniProt Q9D8T2 259-315, looked up, fragment)” was tested, and the Caspase1 fold change (Caspase-1 [1]) was 6.78 fold.
In the case of “HECT, UBA and WWE Domain Containing E3 Ubiquitin Protein Ligase 1 [HUWE1]”, the “enrichment in SEPARATE on a complex biological mixture” value (Caspase-1 [2]) is reported as “among the most significantly enriched targets”, the “cleavage by endogenous Caspase-1 upon inflammasome activation (Western blot)” value (endogenous Caspase-1) is reported as “cleavage” and the “cleavage of endogenous HUWE1 (Western blot)” value (Caspase-1 [3]) is reported as “robust cleavage”.
Work on “HUWE1 2291-2347: 56-amino acid mouse peptidome library peptide of HUWE1 (QDPGEPGEAEVQEEDHDVTQTEVADGDIMDGEAETDSVVIAGQPEVLSSQEMQVENE; UniProt Q7TMY8 2291-2347, looked up, fragment)” yielded a Caspase1 fold change (Caspase-1 [1]) of 6.13 fold.
“HUWE1 2328-2384: 56-amino acid mouse peptidome library peptide of HUWE1 (VVIAGQPEVLSSQEMQVENELEDLIDELLERDGGSGNSTIIVSRSGEDESQEDVLMD; UniProt Q7TMY8 2328-2384, looked up, fragment)” gave a Caspase1 fold change (Caspase-1 [1]) of 23.12 fold.
With “IL1B 0-56: 56-amino acid mouse peptidome library peptide of IL-1β (MATVPELNCEMPPFDSDENDLFFEVDGPQKMKGCFQTFDLGCPDESIQLQISQQHI; UniProt P10749 1-56, looked up, fragment)” the Caspase1 fold change (Caspase-1 [1]) was 8.10 fold.
“IL1B 74-130: 56-amino acid mouse peptidome library peptide of IL-1β (WQLPVSFPWTFQDEDMSTFFSFIFEEEPILCDSWDDDDNLLVCDVPIRQLHYRLRDE; UniProt P10749 74-130, looked up, fragment)” showed a Caspase1 fold change (Caspase-1 [1]) of 13.23 fold.
In the case of “IL1B 75-131: 56-amino acid mouse peptidome library peptide of IL-1β (QLPVSFPWTFQDEDMSTFFSFIFEEEPILCDSWDDDDNLLVCDVPIRQLHYRLRDEQ; UniProt P10749 75-131, looked up, fragment)”, the Caspase1 fold change (Caspase-1 [1]) is reported as 8.80 fold.
